From paper doi:10.1101/798769 (bioRxiv, 2019)

T1: KQPA peptide (PfCSP aa 95-109) (Plasmodium falciparum NF54)
T1 chain: KQPADGNPDPNANPN

T2: NPDP peptide (PfCSP aa 101-116) (Plasmodium falciparum NF54)
T2 chain: NPDPNANPNVDPNANP

T3: NANP 5.5-mer peptide, NP(NANP)5 (Plasmodium falciparum)
T3 chain: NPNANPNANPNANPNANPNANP

T4: NDN3 peptide (Plasmodium falciparum)
T4 chain: NANPNVDPNANP

T5: NANP trimer peptide (NANP3) (Plasmodium falciparum)
T5 chain: NANPNANPNANP

T6: DND3 peptide (Plasmodium falciparum)
T6 chain: NVDPNANPNVDP

T7: NANP pentamer peptide (NANP5) (Plasmodium falciparum (NF54))
T7 chain: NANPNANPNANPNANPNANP

B1: mAb 2541 (recombinant human IgG1, kappa) (antibody, V domains shown)
VH: QVQLVESGGGVVQPGRSLRLSCAASGFTFSSYGMHWVRQTTGKGLEWVAIIWHDGSKKYYADSVKGRLTISRDNSKNTLYLQMNSLRVEDTALYYCARVGDYSDFKYGAFDIWGQGTMVTVSS
VL: DIQMTQSPSTLSASVGDRVTITCRASQSISSWLAWYQQKPGKAPNLLIYKASTLESGVPSRFSGSGSGTEFTLTISSLQPDDFATYYCQQYNSYWTFGQGTRVEIK
B2: mAb 3246 (recombinant human IgG1, kappa) (antibody, V domains shown)
VH: QVQLVESGGGVVQPGRSLRLSCAASGFTFSGSGMHWVRQAPGKGLEWVAIIWYDGSNKFYADSVKGRFTISRDNSKNTLYLQMNSLRGEDTAVYYCARVGDGDGNYMDVWGKGTTVTVSS
VL: not shown
B3: Fab fragment of mAb 4498 (Fab, V domains shown)
VH: QVQLVESGGGVVQPGRSLRLSCAASGFTFSIYGMHWVRQAPGKGLEWVALIWYDGTNKYYTDSVKGRFTISRDNSKNTLFLQMNSVRAEDTAVYYCARDAHYSDSSGYSSWGYFDYWGQGSLVTVSS
VL: EIVLTQSPATLSLSPGERATLSCRASQSVSSYLAWYQQKPGQAPRLLIFDASIRATGIPARFSGSGSGTDFTLTISSLEPEDFAVYYCQQRSNWYTFGQGTKLEIK
B4: Fab fragment of mAb 2541 (Fab, V domains shown)
VH: B1 VH
VL: B1 VL
B5: mAb 4498 (recombinant human IgG1, kappa) (antibody, V domains shown)
VH: B3 VH
VL: B3 VL

What was measured:
[1] = molecular target: T1, KQPA peptide (PfCSP aa 95-109); experiment: SPR
[2] = molecular target: T2, NPDP peptide (PfCSP aa 101-116); experiment: SPR
[3] = molecular target: T3, NANP 5.5-mer peptide, NP(NANP)5; experiment: SPR
[4] = molecular target: complete C-terminus of PfCSP (C-CSP) (Plasmodium falciparum NF54, UniProt P19597); experiment: SPR
NDN3 peptide = molecular target: T4, NDN3 peptide; experiment: ITC
[5] = molecular target: T5, NANP trimer peptide (NANP3); experiment: ITC
DND3 peptide = molecular target: T6, DND3 peptide; experiment: ITC
[6] = molecular target: T7, NANP pentamer peptide (NANP5); experiment: crystal structure
[7] = molecular target: NVDP peptide (PfCSP aa 109-125) (Plasmodium falciparum NF54, UniProt P19597); experiment: SPR
Sequence of NVDP peptide (PfCSP aa 109-125) (P19597 109-128): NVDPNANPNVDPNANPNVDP

Binder	binding result [2]	binding result [3]	binding result (NDN3 peptide)	binding result [5]	other results
B1	binds	binds			binding result [1]: binds
B2					binding result [4]: binds
B3			binds	binds	binding result (DND3 peptide): binds
B4			no binding	binds	binding result [6]: binds
B5	binds	binds			binding result [7]: binds
